Reference: patent US20130287702A1 (CASE WESTERN RESERVE UNIVERSITY, published 2013)
Where no end group is shown, it is not given here.

Key:
[1] = target: T1, proteolytically cleaved PTPµ extracellular fragment in tumors of human LN-229 glioma cells (human, UniProt P28827 21-477, limits assumed); test: in vivo labeling of glioma intracranial tumors, Cy5 cryo-imaging
T1 construct: The target is endogenous material deposited in tumor tissue, not a purified protein; also called proteolyzed extracellular fragment of PTPµ; PTPµ fragment
T1 sequence: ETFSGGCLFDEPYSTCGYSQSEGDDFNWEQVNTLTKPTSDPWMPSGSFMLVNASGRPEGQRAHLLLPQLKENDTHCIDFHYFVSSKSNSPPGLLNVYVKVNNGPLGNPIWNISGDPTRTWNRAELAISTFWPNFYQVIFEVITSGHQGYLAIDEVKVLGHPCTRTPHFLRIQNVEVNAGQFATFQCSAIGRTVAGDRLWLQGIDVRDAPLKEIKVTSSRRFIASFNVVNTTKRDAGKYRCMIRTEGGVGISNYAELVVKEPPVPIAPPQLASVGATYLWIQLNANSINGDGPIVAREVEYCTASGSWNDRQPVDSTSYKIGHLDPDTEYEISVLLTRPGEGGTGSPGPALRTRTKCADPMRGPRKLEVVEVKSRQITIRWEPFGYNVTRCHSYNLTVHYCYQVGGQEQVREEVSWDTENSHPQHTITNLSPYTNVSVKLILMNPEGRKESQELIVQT

[2] = target: T1, proteolytically cleaved PTPµ …; test: fluorescent probe labeling of fixed LN-229-GFP flank tumor sections
Source text: The sections were rinsed with phosphate-buffered saline, coverslipped with Citifluor Antifadent Mounting Medium (Electron Microscopy Sciences), and imaged immediately at ×20 magnification on a Leica DMI 6000 B inverted microscope (Leica Microsystems GmbH, Wetzlar, Germany) using a Retiga EXi camera (QImaging, Surrey, BC) and Metamorph software (MolecularDevices, Downington, Pa.). Images were acquired across the entire tissue using bright-field and fluorescence optics for fluorescein (GFP) and Texas Red (probe). The resultant images were tiled and flattened to form a single composite image using Metamorph software.
Zoomed MR and corresponding heat map images for the tumor are shown (FIG. 15A). […] The corresponding flank tumor sections were incubated with SBK2-Texas Red or scrambled Texas Red probes. SBK2-Texas Red labeled the entire tumor with greatest intensity in the tumor center (FIG. 15B). This pattern is similar to that observed in the MR images following labeling with the SBK2-Tris-(Gd-DOTA)₃ probe. […] Anti-human vimentin antibody was used to label all the human cells in the mouse flank. […] Similar gradients of PTPμ extracellular fragment, as detected by the SBK2 probe, have been observed previously.

Binder	binding result [1]	binding result [2]
GFTQPETGTDNDLWSVDNEK (not fully specified (N-terminus), Same uncertainty about the added N-terminal glycine as for SBK2-Cy5; also called scrambled probe; scrambled version of the PTPµ probe) [scrambled-Cy5 probe]	no binding	–
GFTQPETGTDNDLWSVDNEK (not fully specified (N-terminus); also: Texas Red label, site not given here) [scrambled Texas Red probe]	–	no binding (tested: 1 µM)
